In one assay the target is T1, hMMP16ECD(E247A)-His (human, UniProt P51512 32-564).
T1 construct: IgK signal peptide upstream (cleaved); also called hMMP16-his; hMMP16-His protein
Kind of assay: colorimetric ELISA, plate coated with hMMP16-his at 3 ug/mL, antibody 0.5 ug/mL.

The target of another assay is T2, hMMP16ECD(E247A)-Fc (human, UniProt P51512 32-564).
T2 construct: IgK signal peptide upstream (cleaved); also called phMMP16ECD(E247A)-Fc; not shown: human IgG2 Fc protein
Kind of assay: MSD ELISA, plate coated with hMMP16ECD(E247A)-Fc at 2 ug/mL, antibody 0.5 ug/mL.

T2 sequence (P51512 32-564 E247A): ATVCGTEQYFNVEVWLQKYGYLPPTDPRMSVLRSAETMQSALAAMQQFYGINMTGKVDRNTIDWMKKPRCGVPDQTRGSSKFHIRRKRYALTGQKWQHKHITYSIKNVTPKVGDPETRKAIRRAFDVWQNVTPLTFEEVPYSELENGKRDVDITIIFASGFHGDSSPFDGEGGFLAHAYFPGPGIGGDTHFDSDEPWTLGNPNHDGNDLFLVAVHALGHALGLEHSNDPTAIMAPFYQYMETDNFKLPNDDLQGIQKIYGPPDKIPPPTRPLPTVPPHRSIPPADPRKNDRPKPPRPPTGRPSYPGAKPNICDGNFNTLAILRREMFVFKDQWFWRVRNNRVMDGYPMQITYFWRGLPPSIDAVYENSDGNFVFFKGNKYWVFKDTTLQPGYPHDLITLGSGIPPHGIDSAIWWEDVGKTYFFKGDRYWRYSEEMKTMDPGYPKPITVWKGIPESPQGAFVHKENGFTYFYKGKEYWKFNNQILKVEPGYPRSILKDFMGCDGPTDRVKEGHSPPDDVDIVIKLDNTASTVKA
T1 sequence (P51512 other isoform, or with tags, fused parts or gaps E247A E247A): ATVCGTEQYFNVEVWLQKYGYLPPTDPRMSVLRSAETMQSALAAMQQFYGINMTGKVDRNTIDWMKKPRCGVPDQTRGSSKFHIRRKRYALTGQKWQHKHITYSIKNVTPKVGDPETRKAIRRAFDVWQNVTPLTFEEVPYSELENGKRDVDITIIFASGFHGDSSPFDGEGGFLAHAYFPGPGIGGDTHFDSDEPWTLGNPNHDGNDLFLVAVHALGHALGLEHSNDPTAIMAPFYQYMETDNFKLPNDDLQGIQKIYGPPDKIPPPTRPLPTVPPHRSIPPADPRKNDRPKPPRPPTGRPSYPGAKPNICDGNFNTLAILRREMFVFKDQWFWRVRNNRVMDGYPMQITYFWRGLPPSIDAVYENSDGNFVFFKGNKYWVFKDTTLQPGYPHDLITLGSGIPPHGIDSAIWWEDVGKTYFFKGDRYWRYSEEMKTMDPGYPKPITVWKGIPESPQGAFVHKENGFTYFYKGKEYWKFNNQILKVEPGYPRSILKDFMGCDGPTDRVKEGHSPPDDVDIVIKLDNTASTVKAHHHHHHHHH
Experimental for hMMP16ECD(E247A)-Fc: More particularly plates were coated with 2 μg/mL purified hMMP16ECD (E247A)-Fc, hMMP15ECD (E260A)-Fc, and hMMP24ECD (E283A)-Fc in PBS buffer and incubated at 4° C. overnight. Plates were then washed with PBST (PBS plus 0.05% Tween 20) and blocked with 3% BSA in PBS for 1 hour at room temperature. The plates were washed and 30 μL of anti-MMP16 antibodies was added at 0.5 μg/mL for 1 hour at room temperature. The plate was washed and 25 μL/well of 0.5 μg/mL sulfo-tagged goat anti-mouse IgG (MSD cat no. R32AC-5) was added for 30 min. at room temperature. The plate was washed and MSD Read Buffer T with surfactant was diluted to 1× in water and 150 μL was added to each well. Plates were read on an MSD Sector Imager 2400.

B1: SC73.101 (antibody, V domains shown)
VH: QIHLVQSGPELKKPGETVKISCKASGYTFTDYSMHWVKQAPGKGLKWMGWINTETGEPTYPDDFKGRFAFSLETSASTAYLQINNLKNEDTATYFCARGYGYDETGTFAYWGQGTLVTVSA
VL: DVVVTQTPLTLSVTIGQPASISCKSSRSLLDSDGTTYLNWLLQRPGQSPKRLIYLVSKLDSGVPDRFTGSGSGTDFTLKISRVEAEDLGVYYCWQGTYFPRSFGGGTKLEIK
notes: Murine hybridoma antibody, second inoculation campaign; mouse IgG2a was used as its isotype control in IHC; also called anti-MMP16 antibody (clone SC73.101)
B1: in the assay with hMMP16ECD(E247A)-His, the binding result is reported as “binds”.

B2: SC73.17 (antibody, V domains shown)
VH: EVQLQQSGAELVKPGASVKLSCTASGFNFKDTYMHWVKQRPEQGLEWIGRIDPAIGITEYGPKFQGKATITADTSSNTAYLQLSSLTSEDTAVYYCTRGDFYGNSLDVWGAGTTVTVSS
VL: DIVMTQSPATLSVTPGDRVSLSCRASQIISDYLHWYRQKSHESPRLLIKYASQSISGIPSRFSGSGSGSDFTLSINSVEPEDVGVYYCQNGHSFPLTFGTGTKLELK
notes: Murine hybridoma antibody, first inoculation campaign
Turning to B2, the binding result in the assay with hMMP16ECD(E247A)-Fc is listed as “binds”.

These data come from US20190022242A1 (AbbVie / Abbott, published 2019).
